Laboratory results as given in publication PMC9129911, “Electron Flow From the Inner Membrane Towards the Cell Exterior in Geobacter sulfurreducens: Biochemical Characterization of Cytochrome CbcL” (Frontiers in Microbiology, 2022).

Target: T1, triheme cytochrome PpcA from Geobacter sulfurreducens (Geobacter sulfurreducens, three heme groups)
T1 chain: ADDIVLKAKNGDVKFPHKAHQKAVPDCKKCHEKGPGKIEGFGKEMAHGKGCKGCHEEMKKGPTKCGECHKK
Test: NMR titration; 1D 1H NMR chemical shift perturbation; CbcL (800 uM stock) added to 50 uM PpcA, both oxidized, 10 mM sodium phosphate pH 8, in 2H2O, 25°C; shift of PpcA heme methyl 18^1CH3^I fitted to a one binding site model under fast exchange
Details: both partners purified

Kd: 57 ± 9 µM
B1: CbcL periplasmic domain (c- and b-type cytochrome for low potential) from Geobacter sulfurreducens (domain or fragment)
chain: IDPATCLGCHSNKISAAAFSASVHGKNACTSCHVEITDLTKHMKGEVKVEKVRCERCHKKENAEHYSSVHAQKDVRCADCHTDIHTHSYWNKDKRKVVAKCIQCHDKEAGYRNSIHGKGVAAGNMDSAACNDCHNLHDIKPLGDPKSKENREFHTKVCLKCHADEKMMERNNVFTVAVKTYMDSYHGKNYRLGFPEKVAGCADCHTAHGVLPAKDPNSSVNPQNLVATCAKCHPKATPLFTKFYSHGELG
modifications: nine c-type heme groups
